Reference: the DeepSol protein solubility set

Experiment: soluble on expression in E. coli; label from the status in PepcDB or PDB records
With “MIGFAYLRLQKPSVYVIASQHFDGSIAAGLFESFGFKNIRGSSKKGGVKVLIEGLKRLKEGCDVAITPDGPKGPRHSIADGVIALAQKSGVGISACRVVCKNAWRLNTWDQFEIPKPFSEVYYYMLESVIIPKEWELSRAKEYLKTRMDSVGFEEPQRGLGALEHHHHHH” the “soluble on expression in E. coli” value was “soluble”. In the case of “VAIDYTRRPSSPAAPQGGVSLSKVTLSKAAPSVSLTKSGERQGAMRVNLNWSTGATPQPKKTGFFAKLAAAAGGNNGIDLDLGCLYELADGSKGVVQALGNSFGSLQAPPFIKLDADDRTGTVTGGENLHINLDRPEMFKRILIFAMIYDGAPNWAAVDGVVTLYPTSGPEVEVRLDTSNSSARICAIAMLQNTGQGITVTREVKYIEGSQADLDKTYSWGMKWAAGRK”, the “soluble on expression in E. coli” value is reported as “not soluble”. With “MSLTHTVHLHLEETDNLALQRLCGSFDNNLDLLAKALDIHISRRFEHFTFNGAFAHAGKRALLKLLETAQTRDLNDGDIRLAAVEAQTEDAGHQEKNHDHAYYFRTKRGSIGGRTPRQNGYIRALLNHDIVFGLGPAGTGKTYLAVAAAVDAMEKHQVERIILVRPAVEAGEKLGFLPGDLTQKVDPYLRPLYDALYDLMGFDRVTKLIEKGLIEIAPLAYMRGRTLNGAYIILDEAQNTTPEQMKMFLTRIGFGAKAVITGDTSQIDLPKNIKSGLKDAREKLHNVEGLYFHTFTGEDVVRHPLVQKIVEAYESAEHDEGGSHHHHHH” the “soluble on expression in E. coli” value was “soluble”. For “STAIDGQGKDQVIFVTKEEHETPSTVKQEEEDTNEDPKGKGLILPTGEINWDCPCLGGMASGVCGEQFKSAFTCFHFSQEEVKGSDCLEQFISMQECFHQHPELFPQDNNDLQTADPDQEHSSSISDFTTNKESDSLPTETDEIPTQLPVVS”, the “soluble on expression in E. coli” value was “soluble”. In the case of “MPIIRPEELPKLMRTISMSNLSIPTRCLLEWQLLTLIRPAEASATAWSEIDIENKQWCIPAERMKAKRDHIVPLSEQALELLEIMRPISGNRQYVFPSRNDPRKPMNSQTANAALKRIGYSGKLVAHGLRSIASTAMNEAGFNADVIEAALAHSDKLEHHHHHH”, the “soluble on expression in E. coli” value is reported as “not soluble”. With “MGSDKIHHHHHHMTEFEVHIDLGGSTFPVGLARCNRVRGTERILFEYDAEWLASPDRFSLEPALALTRGAFAPPAGMTSFGSIGDSAPDTWGRRLMQRAERRRAAREGRSVRTLAESDYLLGVSDETRLGALRFRRVGETSFQAPIQAGVPALVELGRLLQVTERVLRDEETDEDLQLIFAPGSSLGGARPKASVIDQYGHLAIAKFPKDTDEYSVETWEEIALRLANQAGIVTPQHELVDVGGRAVMLSRRFDRDGTIRIPFLSAMAMMGARDGEPGSYPEMVDALTAHGAQGKTDAHALYRRVVFSVMISNVDDHLRNHGFLWLGNAGWSLAPAYDLNPVPSDLKARVLTTNIDLDESTCSVDLLEAASGYFGLTLANARRIIKDVASVTATWRNTARAVGARPAEIERMASAFEHDDLQHGLAL” the “soluble on expression in E. coli” value was “not soluble”. For “MGSDKIHHHHHHMGLNAYIQGFNSLESIDRAPGYFKYHHHSVADHCFRTAELAQMMGDIEEVHGNKKINWKALYEKSLNHDYTERFIGDIKTPVKYATPQLRKMIGDVEETMTTKFIKEEIPKEFQEIYTRRLSEGKDDTLEGKILSVCDKLDLLYEAYGEIELGNPNPVYMQMFKESLETIKKFDDLVCVQYFIKKILPDLFKGDFAGKDKMQRIAFSILLLGDDE”, the “soluble on expression in E. coli” value was “not soluble”. With “MSTQYLNSNLKVFSLNSNKELAEQIAKHIGVGLGKCSVDRFSDGEVQINIEESIRGCDVFIIQSTSFPVNEHIMELLIMIDALKRASAKTINIVIPYYGYARQDRKARSREPITSKLVANLLETAGATRVITLDLHAPQIQGFFDIPIDHLMGVPILSDYFETKGLKDIVIVSPDHGGVTRARKMADRLKAPIAIIDKRRPRPNVSEVMNIIGNIEGKTAILIDDIIDTAGTITLAANALVENGASEVYACCTHPVLSGPAIERIQNSNIKELVVTNSIVLPEEKKIDKVHELSVAPLIGEAIIRVYEEESVSVLFN” the “soluble on expression in E. coli” value was “not soluble”. In the case of “MMTRKKELAIALSKLKGFKNPKVWLEQYRTPGNAASELLWLAYSLGDIEGKVVADLGAGTGVLSYGALLLGAKEVICVEVDKEAVDVLIENLGEFKGKFKVFIGDVSEFNSRVDIVIMNPPFGSQRKHADRPFLLKAFEISDVVYSIHLAKPEVRRFIEKFSWEHGFVVTHRLTTKIEIPLQFFFHRKKLERITVDIYRFSKVINSR”, the “soluble on expression in E. coli” value is reported as “soluble”. With “MSLDLEYTPEQQQLRAEIRATLQTVMTPERVAAVSEQMDGGPAVRECVRALAAANLLGVGWPKEYGGRGFSAIEQFIFAEEARRVSAPIPLVTLNTAGPTLMHYGTDEQKRRFLPAILDGTVEFAIGYSEPGAGSDLASVHTTAVRVGDEYVINGQKMFTSGAAYADYIWLAVRTDPDAKKHKGISILIVPTSSPGFSWQPLHTMPGISTFYTFYDDVRVPVSALVGAENQGWQLITTQLNFERAALGNLGALEPLFDKTLDWALSTELDGGRVIDQPWVRSALARVEAQVAAYKLVNLRVNAAMTKGALNMGEASAAKVFGTELTQQVARELLEVLDGNGVRRGAEAPLRGALESAYRQAVINTFGGGANEIQRDIIAMAALGMPRAEGHHHHHH” the “soluble on expression in E. coli” value was “not soluble”. With “IIEEEQQSLTGRLNIAVLPTIAPYLLPRVFPIWKKELAGLEIHVSEMQTSRCLASLLSGEIDMAIIASKAETEGLEDDLLYYEEFLGYVSRCEPLFEQDVIRTTEVNPHRLWLLDEGHCFRDQLVRFCQMKGLHERQTAYSGGSMEAFMRLVESGQGITFIPQLTVEQLSPSQKELVRPFGMPRPVREVRLAVRQDYSRRKLREQLIGLLRSAVPSDMHKLQTGQHLAHHHH” the “soluble on expression in E. coli” value was “soluble”. With “AIAPTELSRTEKKSLIWLFKEHGLRVDGRSALRSRSVSVAVDVLPSTAGSSRVFVGRTNDVLVGINLELRQYNLPAHAEDDAKRGSIAFSVEFCGVASPEFQGRSTEVLEAELVSFLDTAYAASPEFLADLFCREQRLASDPGTLRVCCWDVYVDVLVLGASGGNILDAVTYAVRAALATTVVPSVYWQDSESGGSWELDDRAEYCALLNASNAPLSASGAFIPPLVRDSRTEHDQVTLVAPRWFIIDPCAEEETLAGCFLSVASDSAQHLRAIWKRGSLPVEPDVVLDAAQQCIRDSAYACQEMDHFISELVATEESESVDDVPG” the “soluble on expression in E. coli” value was “soluble”. For “MGSDKIHHHHHHMRFIAGPLNKQLLQNLLGEVIESCTRVRAAVAYASRDNMKLFEACAQHLKPLEFFGRYDHTVAVDPAVLKWFLDKASPNYDCKLVPDILHAKIIWWVDAGAYIGSANLSDRAWISNIEAGTFLPHDELVETGMERELQRFFEEVDDRARPLTKEIYQEQLRLADRRSELSKREYGLEQQFDKDRLLPKNHGLVFVDTKRSSEKRFQKFEQDWNDTLQVMRSIASRVAAPGAKPAWIDASVAPGVQADQFLHAYYYKQVKDGNRHPYEEFFDRNSKNPELALRDALEWWHDADFDHSFEERTIYEWSPRLRELLARDRILKLTEQEFVDAVSRVHAIRDHAIKQENEHLGLPDRPQAGDDKVEKFGEWLWRQRSREGRTVLELLNYVVWGNGSVSARLWNAIRSDDWAIPHIGLSSLGEIVGWARPDEYPPRNMRTSKGLRALGYNVRIGV”, the “soluble on expression in E. coli” value was “not soluble”. In the case of “MFFVSLLFEFFDSIFEIAVMLGFEMLCRMAADSSVLHCLVAAYMGLGKLPATTEKHTYAQQDKSQSDQQKRSQKNCSHLLLYLRNTKVRFSYPQRSTINNS”, the “soluble on expression in E. coli” value is reported as “not soluble”. For “MGSDKIHHHHHHMDLRSDALQILKDTSRTFYIPISILPSGLQEAVASAYLCMRAIDEIEDHPTLDNPTKAKLLRGISLTLQAGVDGFPVDAFAAGFSGYENTLAEVTMRIREWSLLAPETIAPRIWDATAAMSDRMAYWAENNWKIYTESDLDRYTFGVAGAVGLLLSDLWTWYDGTQTNRTLAIGFGRGLQAVNILRNHVEDLGRGVSFFPDGWDANNMQEYALRNLALADAYTQALPDGPALNFCQIPLTLAHGTIDAIANGKEKLSRNDVMALLEHLITFNLKAG”, the “soluble on expression in E. coli” value was “not soluble”. With “MKEKYRHSLKARFFLKDNFLKSEPVFWFHACSYGEVKSLEPIIHALKEPILISVTTNTGFELAAQTYQHSKHIEVRYLPFETLLFAWKKNLKRLKTLVVTEAELWFNVFDTAQKLGAKTMLINARISVRSYPKYQRFSFFYALLFKRIDLILAQSKEDKKRLLNLGAKKVVDFLNIKRFSKPLEHHHHHH” the “soluble on expression in E. coli” value was “not soluble”.
